The target of the experiment is protein of the maize/soybean meal (SBM) substrate (6:4).

“protease derived from Nocardiopsis sp. NRRL 18262 (SEQ ID NO: 1) (enzyme)” displayed a % dig. CP (digested protein, peptides of 1500 Dalton or below, gel filtration HPLC) in the in vitro pancreatic insufficiency digestion model (% dig. CP of total protein) of 49.9.

Source of the values: US20120207741A1.
